# Patent US20150203577A1 (Chugai, published 2015)
# Where a chain is given by its changes, count along the chain named.
# T1: mouse FcγRII (mouse, UniProt P08101 30-210)
# T1 construct: Extracellular domain with C-terminal His tag; also called mFcγRII; mFcgRII
# T1 sequence: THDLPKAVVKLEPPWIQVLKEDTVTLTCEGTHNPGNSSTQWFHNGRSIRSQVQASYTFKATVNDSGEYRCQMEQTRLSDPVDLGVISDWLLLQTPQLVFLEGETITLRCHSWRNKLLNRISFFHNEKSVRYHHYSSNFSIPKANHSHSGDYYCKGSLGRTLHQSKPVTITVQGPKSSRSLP
# T2: mouse FcγRIII (mouse, UniProt P08508 31-215)
# T2 construct: Extracellular domain with C-terminal His tag; also called mFcγRIII; mFcgRIII
# T2 chain: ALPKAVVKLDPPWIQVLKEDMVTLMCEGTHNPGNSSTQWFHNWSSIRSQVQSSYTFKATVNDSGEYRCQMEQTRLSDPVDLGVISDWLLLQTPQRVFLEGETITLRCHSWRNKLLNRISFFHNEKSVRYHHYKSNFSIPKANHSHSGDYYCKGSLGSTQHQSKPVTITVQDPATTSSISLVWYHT
# B1: MB761 (antibody, mouse IgG1, kappa)
# heavy: QVQLQESGPGLVKPSETLSLTCAVSGHSISHDHAWSWVRQPPGEGLEWIGFISYSGITNYNPSLQGRVTISRDNSKNTLYLQMNSLRAEDTAVYYCARSLARTTAMDYWGEGTLVTVSSAKTTPPSVYPLAPGSAAQTNSMVTLGCLVKGYFPEPVTVTWNSGSLSSGVHTFPAVLQSDLYTLSSSVTVPSSTWPSETVTCNVAHPASSTKVDKKIVPRDCGCKPCICEPNEVELVFIFPPKPKDVLTITLTPKVTCVVVDISKDDPEVQFSWFVDDVEVHTAQTQPREEQFNMTFRSVSELPIMHQDWLNGKEFKCRVDSAAFPAPIERTISKTKGRPKAPQVYTIPPPKEQMAKDKVSLTCMITDFFPEDITVEWQWNGQPAENYKNTQPIMDTDGSYFVYSKLNVQKSNWEAGNTFTCSVLHEGLHNHHTEKSLSHSPGK
# light: not shown
# notes: CH name; VH H237 + CH, L chain MRAL-k0; copies: 2 + 2
# B2: MB774 (antibody, mouse IgG1, kappa)
# heavy: B1 heavy with M294S, D320N, E329V, R330K
# light: not shown
# notes: as for B1
# B3: MB769 (antibody, mouse IgG1, kappa)
# heavy: B1 heavy with M294S, D320N, P327D, R330K
# light: not shown
# notes: as for B1
# B4: MB770 (antibody, mouse IgG1, kappa)
# heavy: B1 heavy with M294S, D320N, P327F, R330K
# light: not shown
# notes: as for B1
# B5: MB778 (antibody, mouse IgG1, kappa)
# heavy: B1 heavy with M294S, D320N, R330K, S333K
# light: not shown
# notes: as for B1
# B6: MB781 (antibody, mouse IgG1, kappa)
# heavy: B1 heavy with M294S, D320N, A326K, R330K
# light: not shown
# notes: as for B1
# B7: MB768 (antibody, mouse IgG1, kappa)
# heavy: B1 heavy with M294S, D320N, A326Q, R330K
# light: not shown
# notes: as for B1
# B8: MB776 (antibody, mouse IgG1, kappa)
# heavy: B1 heavy with M294S, D320N, R330K, T331Y
# light: not shown
# notes: as for B1
# B9: MB779 (antibody, mouse IgG1, kappa)
# heavy: B1 heavy with M294S, D320N, R330K, S333W
# light: not shown
# notes: as for B1
# B10: MB762 (antibody, mouse IgG1, kappa)
# heavy: B1 heavy with F292E, M294S, D320N, R330K
# light: not shown
# notes: as for B1
# B11: MB777 (antibody, mouse IgG1, kappa)
# heavy: B1 heavy with M294S, D320N, R330K, S333I
# light: not shown
# notes: as for B1
# B12: MB784 (antibody, mouse IgG1, kappa)
# heavy: B1 heavy with Q291L, M294S, D320N
# light: not shown
# notes: as for B1
# B13: MB771 (antibody, mouse IgG1, kappa)
# heavy: B1 heavy with M294S, D320N, P327Y, R330K
# light: not shown
# notes: as for B1
# B14: MB764 (antibody, mouse IgG1, kappa)
# heavy: B1 heavy with F292T, M294S, D320N, R330K
# light: not shown
# notes: as for B1
# B15: MB782 (antibody, mouse IgG1, kappa)
# heavy: B1 heavy with Q291L, M294S, R330K
# light: not shown
# notes: as for B1
# B16: MB766 (antibody, mouse IgG1, kappa)
# heavy: B1 heavy with M294S, D320M, R330K
# light: not shown
# notes: as for B1
# B17: MB763 (antibody, mouse IgG1, kappa)
# heavy: B1 heavy with F292N, M294S, D320N, R330K
# light: not shown
# notes: as for B1
# B18: MB772 (antibody, mouse IgG1, kappa)
# heavy: B1 heavy with M294S, D320N, E329N, R330K
# light: not shown
# notes: as for B1
# B19: MB767 (antibody, mouse IgG1, kappa)
# heavy: B1 heavy with M294S, D320N, A326G, R330K
# light: not shown
# notes: as for B1
# B20: MB765 (antibody, mouse IgG1, kappa)
# heavy: B1 heavy with M294S, D320L, R330K
# light: not shown
# notes: as for B1
# B21: MB773 (antibody, mouse IgG1, kappa)
# heavy: B1 heavy with M294S, D320N, E329Y, R330K
# light: not shown
# notes: as for B1
# B22: MB775 (antibody, mouse IgG1, kappa)
# heavy: B1 heavy with M294S, D320N, R330K, T331N
# light: not shown
# notes: as for B1
# B23: MB780 (antibody, mouse IgG1, kappa)
# heavy: B1 heavy with M294S, D320N, A323G, R330K
# light: not shown
# notes: as for B1
# B24: MB783 (antibody, mouse IgG1, kappa)
# heavy: B1 heavy with Q291L, M294S, D320N, A322D, R330K
# light: not shown
# notes: as for B1
# Assays:
# mouse FcγRII [1] = biological target: T1, mouse FcγRII; experiment: SPR (Biacore T200); KD of H237-mIgG1/MRAL-k0 / KD of variant
# Excerpt: (§1) The antibody H chain variable region used was the variable region H237 (SEQ ID NO: 1) of the H chain VH3-IgG1 of the anti-IL-6 receptor antibody Fv4-IgG1 described in WO2009/125825. The antibody L chain commonly used was the L chain MRAL-k0 (SEQ ID NO: 2) of the anti-IL-6 receptor antibody tocilizumab. […] These variants were expressed and purified by the method of Reference Example 1 and evaluated for their binding to mFcγRII and mFcγRIII by the method of Reference Example 2 using Biacore T200.
# (§2) Each altered antibody was analyzed for its interaction with each Fcγ receptor prepared above using Biacore T100 (GE Healthcare Japan Corp.), Biacore T200 (GE Healthcare Japan Corp.), Biacore A100, or Biacore 4000. The running buffer used was HBS-EP+ (GE Healthcare Japan Corp.). The assay temperature was set to 25° C. The sensor chips used were chips prepared by immobilizing Protein L (ACTIGEN or BioVision) onto Series S Sensor Chip CM5 (GE Healthcare Japan Corp.) or Series S Sensor Chip CM4 (GE Healthcare Japan Corp.) by the amine coupling method.
# mouse FcγRIII [2] = biological target: T2, mouse FcγRIII; experiment: as above
# Excerpt: as §1, §2
# mouse FcγRII [3] = biological target: T1, mouse FcγRII; experiment: SPR (Biacore T200); KD of H237-MB630/MRAL-k0 / KD of variant
# Excerpt: as §1, §2
# (§3) In order to calculate the KD value of each altered antibody for FcγR, kinetic analysis was conducted according to the following method: first, the antibody of interest was captured onto any of these chips and allowed to interact with mFcγR diluted with a running buffer. For the obtained sensorgram, the assay results were globally fit into the 1:1 Langmuir binding model using Biacore Evaluation Software to calculate an association rate constant ka (L/mol/s) and a dissociation rate constant kd (1/s). From these values, the dissociation constant KD (mol/L) was calculated.
# mouse FcγRIII [4] = biological target: T2, mouse FcγRIII; experiment: as above
# Excerpt: as §1, §2, §3
Binder,relative mFcγRII-binding activity (mIgG1 = 1) (mouse FcγRII [1]) [fold],relative mFcγRIII-binding activity (mIgG1 = 1) (mouse FcγRIII [2]) [fold],Relative mFcγRII-binding activity (MB630 = 1) (mouse FcγRII [3]) [fold],Relative mFcγRIII-binding activity (MB630 = 1) (mouse FcγRIII [4]) [fold]
B1,13.4,0.18,0.81,0.92
B2,9.4,0.18,0.87,1.05
B3,3.3,0.06,0.31,0.38
B4,13.3,0.24,1.23,1.4
B5,6.1,0.11,0.57,0.65
B6,5.2,0.13,0.48,0.77
B7,5.4,0.14,0.5,0.81
B8,11.3,0.2,1.04,1.15
B9,10,0.18,0.92,1.02
B10,4.4,0.09,0.4,0.51
B11,9.7,0.17,0.74,0.72
B12,14.7,0.38,1.36,2.24
B13,13.8,0.26,1.27,1.53
B14,2.5,0.05,0.23,0.32
B15,21.3,0.5,1.96,2.89
B16,14,0.27,1.29,1.55
B17,3.4,0.07,0.31,0.41
B18,3.5,0.07,0.32,0.42
B19,1.8,0.03,0.16,0.19
B20,5.3,0.11,0.49,0.64
B21,12.7,0.22,1.17,1.25
B22,9.1,0.18,0.84,1.02
B23,20.2,0.39,1.86,2.29
B24,30.6,0.75,2.82,4.34
